Assay results: patent KR20210073785A (dated 2021)

Target: T1, 호산구 유래 신경독(eosinophil-derived neurotoxin, EDN) (UniProt P10153 28-161)
T1 construct: also called 항원 EDN
T1 sequence (looked up): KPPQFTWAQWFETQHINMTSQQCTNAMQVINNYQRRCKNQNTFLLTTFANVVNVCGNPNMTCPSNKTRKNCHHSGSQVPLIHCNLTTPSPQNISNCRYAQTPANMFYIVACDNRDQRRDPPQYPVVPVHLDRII
Test: BLI (Octet), AR2G amine-reactive biosensor, antibody immobilised, EDN as analyte at 12.5, 6.25, 3.13, 1.56 and 0.78 nM, 1X kinetic buffer

B1: 단일클론항체 Anti-6C5 (antibody, V domains shown)
VH: EVQLQQPGPELVKPGASVKISCKASAYSFTDYIMLWVKQSHGKSLEWIGNIHPYYGSSSYNLKFKGKATLTVDKSSSTAYMQLNSLTSEDSAVYYCAREVGFGKGGFDYWGQGTTLTVSS
VL: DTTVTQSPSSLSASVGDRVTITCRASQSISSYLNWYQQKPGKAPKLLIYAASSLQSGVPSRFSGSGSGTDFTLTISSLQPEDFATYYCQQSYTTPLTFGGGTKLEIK
notes: Whole monoclonal antibody produced from hybridoma cell line 6C5 (culture supernatant); The heavy chain ran at 50 kDa on reducing SDS-PAGE; also called Anti-6C5(6C5)
B1 gave a Kd of 0.0576 nM.
